The values that follow come from patent US20210188980A1 (SHANGHAI EPIMAB BIOTHERAPEUTICS, published 2021).

Residue numbers refer to the chain shown, from its start.

For test [1], the target named is T1, recombinant human LAG-3-his protein (Novoprotein) (human, UniProt P18627 23-450).
T1 construct: Bought; also called huLAG-3; not shown: His tag
T1 sequence (looked up): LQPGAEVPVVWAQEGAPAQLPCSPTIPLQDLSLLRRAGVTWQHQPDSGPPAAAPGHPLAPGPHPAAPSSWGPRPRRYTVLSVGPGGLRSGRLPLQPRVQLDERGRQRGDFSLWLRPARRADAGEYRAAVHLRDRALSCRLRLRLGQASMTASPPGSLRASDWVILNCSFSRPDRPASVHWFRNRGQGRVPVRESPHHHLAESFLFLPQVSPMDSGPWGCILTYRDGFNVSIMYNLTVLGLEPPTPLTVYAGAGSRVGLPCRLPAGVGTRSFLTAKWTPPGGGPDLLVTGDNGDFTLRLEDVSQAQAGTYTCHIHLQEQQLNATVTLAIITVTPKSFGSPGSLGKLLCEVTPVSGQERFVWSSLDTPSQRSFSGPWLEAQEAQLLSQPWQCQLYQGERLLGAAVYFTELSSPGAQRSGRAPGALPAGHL
Kind of test: BLI Octet, Ab on AHC sensor, huLAG-3-his; test group 1. As to the method:
(§1) All 9 humanized antibodies (Table 25) and a chimeric antibody having the parental murine VH and VL domains (mAb747c) were ranked by dissociation rate constant (koff). Briefly, antibodies were characterized for affinities and binding kinetics by Octet RED96 biolayer interferometry (Pall FortéBio LLC). Antibodies were captured by Anti-HIgG Fc Capture (AHC) Biosensors (Pall) at a concentration of 100 nM for 30 seconds. Sensors were then dipped into running buffer (1× pH7.2 PBS, 0.05% Tween 20, 0.1% BSA) for 60 seconds to check baseline. Binding was measured by dipping sensors into a single concentration of recombinant human LAG-3-his protein (Novoprotein). Dissociation was followed by dipping sensors into running buffer for 1200 seconds. The association and dissociation curves were fitted to a 1:1 Langmuir binding model using FortéBio Data Analysis software (Pall).
(§2) The seven Fab clones were converted to full IgG proteins. Briefly, the VH and VL genes were produced synthetically and then cloned into vectors containing coding sequences for the human IgG1 and human kappa constant domains, respectively. The heavy chain and cognate light chain plasmids were co-transfected into HEK 293E cells, individually. After approximately six days of post-transfection cell culture, the supernatants were harvested and subjected to Protein A affinity chromatography. The affinity of purified antibodies was ranked by Octet® RED96 biolayer interferometry (see, Example 9.1, supra).
(Biolayer interferometry detects binding as a change in optical thickness at a sensor tip.)

Test [2] concerns the target T1, recombinant human LAG-3-his protein …. The test is described as above. As to the method:
as §1
(§3) All 13 humanized antibodies (Table 39) and chimeric anti-LAG-3 antibody mAb747c having the parental murine VH and VL domains were ranked by dissociation rate constant (koff) in the same manner described in Example 9.1 supra. In each test group, the off-rates of antibodies were able to be compared with that of mAb747c. The off-rate ratios were calculated by the off-rate of antibody to that of mAb747c of its group and were compared all together. The lower the ratio was, the higher was the affinity of the antibody.
This is another data set of the same source.

The target is the same in test [3]. Kind of test: BLI Octet, Ab on AHC sensor, huLAG-3-his; test group 4. As for the experimental part:
as §1, with “All 18” for “All 9”, “(Table 34)” for “(Table 25)”, “by Octet®RED96” for “by Octet RED96”, “(Pall ForteBio” for “(Pall FortéBio”, “by Anti-hIgG” for “by Anti-HIgG”, “(Pall). In each test group, the off-rates of antibodies were able to be compared with that of mAb747c. The off-rate ratios were calculated by the off-rate of antibody to that of mAb747c of its group and were compared all together. The lower the ratio was, the higher was the affinity of the antibody.” for “(Pall).”

Test [4] has the same target. Kind of test: BLI Octet, Ab on AHC sensor, huLAG-3-his; test group 2. As to the method:
as §1, §3

Test [5] shares this target. Kind of test: BLI Octet, Ab on AHC sensor, huLAG-3-his; test group 3. As for the experimental part: as §1, §3
Test [6] shares this target. Kind of test: BLI Octet, Ab on AHC sensor, huLAG-3-his; test group 2. As for the experimental part:
as §1, with “All 18” for “All 9”, “(Table 34)” for “(Table 25)”, “by Octet®RED96” for “by Octet RED96”, “(Pall ForteBio” for “(Pall FortéBio”, “by Anti-hIgG” for “by Anti-HIgG”, “(Pall). In each test group, the off-rates of antibodies were able to be compared with that of mAb747c. The off-rate ratios were calculated by the off-rate of antibody to that of mAb747c of its group and were compared all together. The lower the ratio was, the higher was the affinity of the antibody.” for “(Pall).”
This is another data set of the same source.

For test [7] the target is unchanged. Kind of test: BLI Octet, Ab on AHC sensor, huLAG-3-his; test group 1. As for the experimental part:
as §1, with “All 18” for “All 9”, “(Table 34)” for “(Table 25)”, “by Octet®RED96” for “by Octet RED96”, “(Pall ForteBio” for “(Pall FortéBio”, “by Anti-hIgG” for “by Anti-HIgG”, “(Pall). In each test group, the off-rates of antibodies were able to be compared with that of mAb747c. The off-rate ratios were calculated by the off-rate of antibody to that of mAb747c of its group and were compared all together. The lower the ratio was, the higher was the affinity of the antibody.” for “(Pall).”
The source holds these as a separate data set.

The target is the same in test [8]. Kind of test: BLI Octet, Ab on AHC sensor, huLAG-3-his; test group 3. As to the method:
as §1, with “All 18” for “All 9”, “(Table 34)” for “(Table 25)”, “by Octet®RED96” for “by Octet RED96”, “(Pall ForteBio” for “(Pall FortéBio”, “by Anti-hIgG” for “by Anti-HIgG”, “(Pall). In each test group, the off-rates of antibodies were able to be compared with that of mAb747c. The off-rate ratios were calculated by the off-rate of antibody to that of mAb747c of its group and were compared all together. The lower the ratio was, the higher was the affinity of the antibody.” for “(Pall).”
The source holds these as a separate data set.

The target is the same in test [9]. Kind of test: BLI Octet, Ab on AHC sensor, huLAG-3-his analyte. As for the experimental part:
as §1

The target is the same in test [10]. Kind of test: BLI Octet, Ab on AHC sensor, huLAG-3-his; test group 2. As for the experimental part:
as §1, §2
This is another data set of the same source.

For test [11], the target named is T2, human LAG-3 ECD/Fc fusion protein (human).
T2 construct: also called HuLAG-3 ECD/Fc
Kind of test: SPR Biacore, HuPD-1 ECD/Fc and HuLAG-3 ECD/Fc both on chip, Ab analyte. For orientation: In SPR one partner is held on a chip, and binding of the other changes the refractive index at the surface.

Test [12] addresses T2, human LAG-3 ECD/Fc fusion protein. Kind of test: SPR Biacore, HuLAG-3 ECD/Fc on chip, Ab analyte.
Test [13] has as its target T3, human PD-1 expressed on cells (human, UniProt Q15116 25-288).
T3 construct: whole, on cells; also called CHO-K1/huPD-1; CHO-K1-hPD-1 cells
Kind of test: cell RBA FACS, CHO-K1-huPD1; competitor biotin-PD-L2/Fc. As to the method: (§4) All 15 humanized antibodies and the chimeric antibody (mAb709c) were characterized by binding ELISA and cell-based RBA. For cell-based RBA, 2×10⁵ cells/well of CHO-K1-huPD1 cells were added to a pre-blocked 96-well round-bottomed plate and after washing, 50 μl antibodies with diluted concentration ranging from 0.064 nM to 200 nM were added to each well. Next, 50 μl of 60 μg/ml biotinylated PD-L1/Fc or biotinylated PD-L2/Fc protein were added. After gentle mixing and incubation at 4° C., the cells were washed and stained by Alexa Fluor™ 488 streptavidin solution (1:1000, ThermoFisher Scientific; Cat. No. S32354). Signals were readout by FACS and curves were fitted by GraphPad software. […] The association and dissociation rate constants, k (M⁻¹ s⁻¹) and koff(s⁻¹), respectively, were determined by making kinetic binding measurements at five different concentrations of human PD-1-His protein at a continuous flow rate of 30 μl/min. The equilibrium dissociation constant KD (M) of the reaction between antibodies and related target proteins was calculated from the kinetic rate constants using the formula KD=koff/kₒₙ. HumAb709-8 had minimal back-mutation(s) while maintaining to the greatest extent the affinity of the parental variable domains on chimeric mAb709c.

For test [14], the target named is T4, human PD-1 ECD/Fc fusion protein (human).
T4 construct: also called huPD-1/Fc; HuPD-1 ECD/Fc
Kind of test: SPR Biacore, HuPD-1 ECD/Fc on chip, Ab analyte.

For test [15], the target named is T4, human PD-1 ECD/Fc fusion protein. Kind of test: SPR Biacore, HuPD-1 ECD/Fc and HuLAG-3 ECD/Fc both on chip, Ab analyte.
The target of the next test is T5, human PD-1-His protein (human, UniProt Q15116 25-167, limits assumed).
T5 construct: also called huPD-1; not shown: His tag
Kind of test: SPR Biacore, Ab captured, huPD-1-His analyte. As for the experimental part:
as §4

Test [16] concerns the target T3, human PD-1 expressed on cells. Kind of test: cell RBA FACS, CHO-K1-huPD1; competitor biotin-PD-L1/Fc. As for the experimental part:
as §4

T5 sequence (Q15116 25-167 limits assumed): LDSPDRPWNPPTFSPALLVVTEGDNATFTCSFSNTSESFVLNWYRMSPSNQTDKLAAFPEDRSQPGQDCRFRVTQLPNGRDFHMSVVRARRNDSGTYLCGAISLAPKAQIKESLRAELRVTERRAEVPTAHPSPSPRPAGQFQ
T4 sequence (chain, as listed by the source limits assumed): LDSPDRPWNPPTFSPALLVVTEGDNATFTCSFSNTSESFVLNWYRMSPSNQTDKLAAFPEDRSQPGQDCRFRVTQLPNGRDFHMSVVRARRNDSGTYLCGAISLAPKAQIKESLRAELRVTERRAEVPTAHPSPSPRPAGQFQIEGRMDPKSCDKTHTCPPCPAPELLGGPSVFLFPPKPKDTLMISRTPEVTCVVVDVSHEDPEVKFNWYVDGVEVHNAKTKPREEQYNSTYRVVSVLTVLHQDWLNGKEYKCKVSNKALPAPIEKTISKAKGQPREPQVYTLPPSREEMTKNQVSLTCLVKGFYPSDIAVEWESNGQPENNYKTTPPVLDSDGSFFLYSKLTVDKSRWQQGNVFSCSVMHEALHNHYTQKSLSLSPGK
T3 sequence (Q15116 25-288): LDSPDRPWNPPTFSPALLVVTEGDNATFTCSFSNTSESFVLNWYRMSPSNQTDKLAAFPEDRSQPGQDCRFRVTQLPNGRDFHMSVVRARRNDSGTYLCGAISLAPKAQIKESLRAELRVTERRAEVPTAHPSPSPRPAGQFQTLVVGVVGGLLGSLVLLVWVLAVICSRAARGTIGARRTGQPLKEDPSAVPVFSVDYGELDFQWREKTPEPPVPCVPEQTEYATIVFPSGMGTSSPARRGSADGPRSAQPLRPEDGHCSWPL

B1: mAb747c (antibody, V domains shown)
VH: EVQLQQSGAELVRPGASVKLSCTASDFNIKDDYMHWVKQRPEQGLDWIGWIVPENGNTEYASKFQGKATITADTSSNTAYLQLSSLTSEDTAVYYCTVYGDYWGQGTTLTVSS
VL: DIQMTQSPSSLSASLGERVSLNCRASQEISGYLSWLQQKPDGTIKRLIYAASTLDSGVPKRFSGSRSGSDYSLTISSLESEDFAAYYCLQYASYPLTFGAGTKLELK
notes: also called mAb717c
By koff is commonly meant a measure of how fast the partners let go of each other. For the molecule B1, the dissociation rate constant (koff) in [1] came out at 0.0015 s⁻¹; in [2], 0.000615 s⁻¹; in [3], 0.00053 s⁻¹; in test [4], 0.000676 s⁻¹; in test [5], 0.000631 s⁻¹; in test [6], 0.00135 s⁻¹. For the same molecule, the koff in test [7] worked out at 0.00136 s⁻¹; in test [8], 0.00123 s⁻¹; in test [9] it was 0.000377 s⁻¹; in test [10], 0.00163 s⁻¹. Further, the “off-rate ratio to that of mAb747c” value in test [1], in test [2], in test [3], in test [4], in test [5] and in test [6] was 100% in each case. For the same molecule, the “off-rate ratio to that of mAb747c” value in test [7], in test [8] and in test [10] was 100% in each case.

B2: mAb746c (antibody, V domains shown)
VH: B1 VH
VL: B1 VL with P40S, A85D
The Kd is the equilibrium constant for the complex coming apart. A lower Kd goes with higher affinity. Usually kon stands for the second-order rate constant of association. In test [11], B2 returned a dissociation constant (Kd) of 16.2 nM, an off-rate (koff) of 0.000154 s⁻¹ and an association rate constant (kon) of 9510 M⁻¹ s⁻¹. In test [12], this molecule returned an equilibrium dissociation constant (Kd) of 32.5 nM, a koff of 0.000181 s⁻¹ and a kon of 5580 M⁻¹ s⁻¹.

B3: HumAb747V-73 (antibody, human IgG1, V domains shown)
VH: EVQLVQSGAEVKKPGATVKLSCTASGFNIKDDYMHWVKQRPEQGLDWIGWIVPRNGNTVYASKFQGKATITADTSTNTAYLELSSLRSEDTAVYYCTVYGDYWGQGTTVTVSS
VL: DIQMTQSPSSLSASVGDRVTITCRASQEISGYLSWLQQKPGGAIKRLIYAASTLDSGVPSRFSGSRSGSDYTLTISSLQPEDFADYYCLQYASYPLTFGQGTKLELK
notes: engineered HumAb747-60 variant; human IgG1/kappa constant domains
Regarding B3, in test [5], the koff came out at 0.000321 s⁻¹ and the “off-rate ratio to that of mAb747c” value came out at 51%.

B4: HumAb747-39 (antibody, human IgG1, V domains shown)
VH: EVQLVQSGAEVKKPGASVKVSCKASDFNIKDDYMHWVRQAPGQGLEWIGWIVPENGNTEYASKFQGRVTITADTSINTAYMELSRLRSDDTAVYYCTVYGDYWGQGTTVTVSS
VL: B3 VL with T22N, G41E, A43T, D85T, Q100G, L104V, L106I
notes: humanized mAb747; human IgG1 and human kappa constant domains
In the case of B4, the koff in [9] was found to be 0.00114 s⁻¹. In addition, in test [10], the koff worked out at 0.00391 s⁻¹ and the “off-rate ratio to that of mAb747c” value is 240%.

B5: HumAb747-42 (antibody, human IgG1, V domains shown)
VH: B4 VH with R67K, V68A
VL: B3 VL with T22N, G41E, A43T, D85T, Q100G, L104V, L106I
notes: as for B4
For B5, in test [9], the koff was found to be 0.00083 s⁻¹ and the “off-rate constant, fold of the chimeric control mAb747c” value was found to be 2.2 fold. Further, in test [10], the off-rate constant (koff) is 0.00428 s⁻¹ and the “off-rate ratio to that of mAb747c” value turned out to be 263%.

B6: mAb709c (antibody, V domains shown)
VH: EVKLVESGGGLVKPGGSLKLSCAASGFTFSFYTMSWVRQTPEKRLEWVATISGGGRDTYYPDSVKGRFTISRDNAKNTLYLHMSSLRSEDTALYYCAGQGGNYLFAYWGQGTLVTVSA
VL: DIVMTQSHKFMSTSVGDSVTITCKASQDVNTVVAWYQQKPGQSLKVLISWASTRHTGVPARFTGSGSGTDYTLTISSVQAEDLALYYCQQHYTTPYTFGGGTQLEIK
notes: also called HumAb709c
By IC50 is commonly meant the concentration that inhibits the measured activity by half. A high value points to weaker potency in that assay. Consider B6, for which the figures for the IC50 in test [13] and in [16] were 0.56 nM and 0.62 nM, respectively. Moreover, the equilibrium dissociation constant (Kd) in test [14] was determined as 0.035 nM; in [15], 0.0337 nM; with human PD-1-His protein, 0.567 nM. Moreover, the koff in test [14] is 8.82e-06 s⁻¹; in [15], 9.72e-06 s⁻¹; with human PD-1-His protein, 6.88e-05 s⁻¹. Also, the values for the kon (in test [14]; in [15]; with human PD-1-His protein) were 252000 M⁻¹ s⁻¹, 288000 M⁻¹ s⁻¹ and 121000 M⁻¹ s⁻¹, respectively.
